This data set has as its system HeLa Kyoto. The experiment in a line: thermal stability score vs G1/S (z-score of summed log2 fold changes over temperatures); higher = more thermally stable than in G1/S.
Where [1] appears, read: cell cycle stage: early G1 (4.5 h after nocodazole release).
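Further: synchronized HeLa Kyoto cells, proteins quantified by TMT10plex mass spectrometry, three biological replicates, mitosis taken 0.5 h after nocodazole release, G1/S directly after double thymidine block.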

Regarding “MAAGLRKRGRSGSAAQAEGLCKQWLQRAWQERRLLLREPRYTLLVAACLCLAEVGITFWVIHRVAYTEIDWKAYMAEVEGVINGTYDYTQLQGDTGPLVYPAGFVYIFMGLYYATSRGTDIRMAQNIFAVLYLATLLLVFLIYHQTCKVPPFVFFFMCCASYRVHSIFVLRLFNDPVAMVLLFLSINLLLAQRWGWGCCFFSLAVSVKMNVLLFAPGLLFLLLTQFGFRGALPKLGICAGLQVVLGLPFLLENPSGYLSRSFDLGRQFLFHWTVNWRFLPEALFLHRAFHLALLTAHLTLLLLFALCRWHRTGESILSLLRDPSKRKVPPQPLTPNQIVSTLFTSNFIGICFSRSLHYQFYVWYFHTLPYLLWAMPARWLTHLLRLLVLGLIELSWNTYPSTSCSSAALHICHAVILLQLWLGPQPFPKSTQHSKKAH [ALG3]”, the thermal stability score is, setting by setting: under setting [1], 1.41; (cell cycle stage: mitosis) 2.38.
The like results for “MAALEKMTFPKKMTFPEKPSHKKYRAALKKEKRKKRRQELARLRDSGLSQEEEEDTFIEEQQLEEEKLLERERERLHEEWLLREQKAQEEFRIKKEKEEAAKKWLEEQERKLKEQWKEQQRKEREEEEQKQQEKKEKEEAVQKMLDQAENDLENSTTWQNPEPPVDFRVMEKDRANCPFYSKTGACRFGDRCSRKHNFPTSSPTLLIKSMFTTFGMEQCRRDDYDPDASLEYSEEETYQQFLDFYEDVLPEFKNVGKVIQFKVSCNLEPHLRGNVYVQYQSEEECQAALSLFNGRWYAGRQLQCEFCPVTRWKMAICGLFEIQQCPRGKHCNFLHVFRNPNNEFWEANRDIYLSSDQTGSSFGKNSERREKMGHHDHYYSRQRGRRNPSPDHTYKRNGESERKKSSHRGKKSHKRTSKSRERHNSPSRGRNRHRSWDQGRRSQSRRSHRSRSQSSSRCRSRGRRKSGNRDRTVQSPQSK [ZRSR1]” were, in that order, 1.06e-17 and 1.37e-17.
For the sequence “MAEQVLPQALYLSNMRKAVKIRERTPEDIFKPTNGIIHHFKTMHRYTLEMFRTCQFCPQFREIIHKALIDRNIQATLESQKKLNWCREVRKLVALKTNGDGNCLMHATSQYMWGVQDTDLVLRKALFSTLKETDTRNFKFRWQLESLKSQEFVETGLCYDTRNWNDEWDNLIKMASTDTPMARSGLQYNSLEEIHIFVLCNILRRPIIVISDKMLRSLESGSNFAPLKVGGIYLPLHWPAQECYRYPIVLGYDSHHFVPLVTLKDSGPEIRAVPLVNRDRGRFEDLKVHFLTDPENEMKEKLLKEYLMVIEIPVQGWDHGTTHLINAAKLDEANLPKEINLVDDYFELVQHEYKKWQENSEQGRREGHAQNPMEPSVPQLSLMDVKCETPNCPFFMSVNTQPLCHECSERRQKNQNKLPKLNSKPGPEGLPGMALGASRGEAYEPLAWNPEESTGGPHSAPPTAPSPFLFSETTAMKCRSPGCPFTLNVQHNGFCERCHNARQLHASHAPDHTRHLDPGKCQACLQDVTRTFNGICSTCFKRTTAEASSSLSTSLPPSCHQRSKSDPSRLVRSPSPHSCHRAGNDAPAGCLSQAARTPGDRTGTSKCRKAGCVYFGTPENKGFCTLCFIEYRENKHFAAASGKVSPTASRFQNTIPCLGRECGTLGSTMFEGYCQKCFIEAQNQRFHEAKRTEEQLRSSQRRDVPRTTQSTSRPKCARASCKNILACRSEELCMECQHPNQRMGPGAHRGEPAPEDPPKQRCRAPACDHFGNAKCNGYCNECFQFKQMYG [TNFAIP3]”, the thermal stability score under setting [1] was found to be 0.262 and the thermal stability score (cell cycle stage: mitosis) was -0.606.
The like results for “MAGLKRRVPLHSLRYFISMVGLFSKPGLLPWYARNPPGWSQLFLGTVCKGDFTRVIATKCQKGQKSQKKPSHLGPLDGSWQERLADVVTPLWRLSYEEQLKVKFAAQKKILQRLESYIQMLNGVSVTTAVPKSERLSCLLHPIIPSPVINGYRNKSTFSVNRGPDGNPKTVGFYLGTWRDGNVVCVQSNHLKNIPEKHSQVAQYYEVFLRQSPLEPCLVFHEGGYWRELTVRTNSQGHTMAIITFHPQKLSQEELHVQKEIVKEFFIRGPGAACGLTSLYFQESTMTRCSHQQSPYQLLFGEPYIFEELLSLKIRISPDAFFQINTAGAEMLYRTVGELTGVNSDTILLDICCGTGVIGLSLAQHTSRVLGIELLEQAVEDARWTAAFNGITNSEFHTGQAEKILPGLLKSKEDGQSIVAVVNPARAGLHYKVIQAIRNFRAIHTLVFVSCKLHGESTRNVIELCCPPDPAKKLLGEPFVLQQAVPVDLFPHTPHCELVLLFTR [TRMT2B]” were, in that order, 0.356 and 1.27.
In the same order, the values of “MAPLRPLLILALLAWVALADQESCKGRCTEGFNVDKKCQCDELCSYYQSCCTDYTAECKPQVTRGDVFTMPEDEYTVYDDGEEKNNATVHEQVGGPSLTSDLQAQSKGNPEQTPVLKPEEEAPAPEVGASKPEGIDSRPETLHPGRPQPPAEEELCSGKPFDAFTDLKNGSLFAFRGQYCYELDEKAVRPGYPKLIRDVWGIEGPIDAAFTRINCQGKTYLFKGSQYWRFEDGVLDPDYPRNISDGFDGIPDNVDAALALPAHSYSGRERVYFFKGKQYWEYQFQHQPSQEECEGSSLSAVFEHFAMMQRDSWEDIFELLFWGRTSAGTRQPQFISRDWHGVPGQVDAAMAGRIYISGMAPRPSLAKKQRFRHRNRKGYRSQRGHSRGRNQNSRRPSRATWLSLFSSEESNLGANNYDDYRMDWLVPATCEPIQSVFFFSGDKYYRVNLRTRRVDTVDPPYPRSIAQYWLGCPAPGHL [VTN]” are 2.31 and -1.24.
Turning to “MASAVFEGTSLVNMFVRGCWVNGIRRLIVSRRGDEEEFFEIRTEWSDRSVLYLHRSLADLGRLWQRLRDAFPEDRSELAQGPLRQGLVAIKEAHDIETRLNEVEKLLKTIISMPCKYSRSEVVLTFFERSPLDQVLKNDNVHKIQPSFQSPVKISEIMRSNGFCLANTETIVIDHSIPNGRDQQLGVDPTEHLFENGSEFPSELEDGDDPAAYVTNLSYYHLVPFETDIWD [PXDC1]”, the thermal stability score under setting [1] was -0.022 and the thermal stability score (cell cycle stage: mitosis) is 0.549.
The like results for “MDPETRGQEIIKVTPLQQMLASCTGAILTSVIVTPLDVVKIRLQAQNNPLPKGKCFVYSNGLMDHLCVCEEGGNKLWYKKPGNFQGTLDAFFKIIRNEGIKSLWSGLPPTLVMAVPATVIYFTCYDQLSALLRSKLGENETCIPIVAGIVARFGAVTVISPLELIRTKMQSKKFSYVELHRFVSKKVSEDGWISLWRGWAPTVLRDVPFSAMYWYNYEILKKWLCEKSGLYEPTFMINFTSGALSGSFAAVATLPFDVVKTQKQTQLWTYESHKISMPLHMSTWIIMKNIVAKNGFSGLFSGLIPRLIKIAPACAIMISTYEFGKAFFQKQNVRRQQY [SLC25A40]” were, in that order, -1.32 and -2.29.
The like results for “MEPGEVKDRILENISLSVKKLQSYFAACEDEIPAIRNHDKVLQRLCEHLDHALLYGLQDLSSGYWVLVVHFTRREAIKQIEVLQHVATNLGRSRAWLYLALNENSLESYLRLFQENLGLLHKYYVKNALVCSHDHLTLFLTLVSGLEFIRFELDLDAPYLDLAPYMPDYYKPQYLLDFEDRLPSSVHGSDSLSLNSFNSVTSTNLEWDDSAIAPSSEDYDFGDVFPAVPSVPSTDWEDGDLTDTVSGPRSTASDLTSSKASTRSPTQRQNPFNEEPAETVSSSDTTPVHTTSQEKEEAQALDPPDACTELEVIRVTKKKKIGKKKKSRSDEEASPLHPACSQKKCAKQGDGDSRNGSPSLGRDSPDTMLASPQEEGEGPSSTTESSERSEPGLLIPEMKDTSMERLGQPLSKVIDQLNGQLDPSTWCSRAEPPDQSFRTGSPGDAPERPPLCDFSEGLSAPMDFYRFTVESPSTVTSGGGHHDPAGLGQPLHVPSSPEAAGQEEEGGGGEGQTPRPLEDTTREAQELEAQLSLVREGPVSEPEPGTQEVLCQLKRDQPSPCLSSAEDSGVDEGQGSPSEMVHSSEFRVDNNHLLLLMIHVFRENEEQLFKMIRMSTGHMEGNLQLLYVLLTDCYVYLLRKGATEKPYLVEEAVSYNELDYVSVGLDQQTVKLVCTNRRKQFLLDTADVALAEFFLASLKSAMIKGCREPPYPSILTDATMEKLALAKFVAQESKCEASAVTVRFYGLVHWEDPTDESLGPTPCHCSPPEGTITKEGMLHYKAGTSYLGKEHWKTCFVVLSNGILYQYPDRTDVIPLLSVNMGGEQCGGCRRANTTDRPHAFQVILSDRPCLELSAESEAEMAEWMQHLCQAVSKGVIPQGVAPSPCIPCCLVLTDDRLFTCHEDCQTSFFRSLGTAKLGDISAVSTEPGKEYCVLEFSQDSQQLLPPWVIYLSCTSELDRLLSALNSGWKTIYQVDLPHTAIQEASNKKKFEDALSLIHSAWQRSDSLCRGRASRDPWC [PLEKHM2]” were, in that order, -1.92 and -1.58.
In the same order, the values of “MGSNSSRIGDLPKNEYLKKLSGTESISENDPFWNQLLSFSFPAPTSSSELKLLEEATISVCRSLVENNPRTGNLGALIKVFLSRTKELKLSAECQNHIFIWQTHNALFIICCLLKVFICQMSEEELQLHFTYEEKSPGNYSSDSEDLLEELLCCLMQLITDIPLLDITYEISVEAISTMVVFLSCQLFHKEVLRQSISHKYLMRGPCLPYTSKLVKTLLYNFIRQEKPPPPGAHVFPQQSDGGGLLYGLASGVATGLWTVFTLGGVGSKAAASPELSSPLANQSLLLLLVLANLTDASDAPNPYRQAIMSFKNTQDSSPFPSSIPHAFQINFNSLYTALCEQQTSDQATLLLYTLLHQNSNIRTYMLARTDMENLVLPILEILYHVEERNSHHVYMALIILLILTEDDGFNRSIHEVILKNITWYSERVLTEISLGSLLILVVIRTIQYNMTRTRDKYLHTNCLAALANMSAQFRSLHQYAAQRIISLFSLLSKKHNKVLEQATQSLRGSLSSNDVPLPDYAQDLNVIEEVIRMMLEIINSCLTNSLHHNPNLVYALLYKRDLFEQFRTHPSFQDIMQNIDLVISFFSSRLLQAGAELSVERVLEIIKQGVVALPKDRLKKFPELKFKYVEEEQPEEFFIPYVWSLVYNSAVGLYWNPQDIQLFTMDSD [DYM]” are 0.139 and 0.823.
Take “MHTLVFLSTRQVLQCQPAACQALPLLPRELFPLLFKVAFMDKKTVVLRELVHTWPFPLLSFQQLLQECAHCSRALLQERPSTESMQAVILGLTARLHTSEPGASTQPLCRKHALRVLDMTGLLDDGVEQDPGTMSMWDCTAAVARTCIAQQQGGAAEPGPAPIPVEVRVDLRVNRASYAFLREALRSSVGSPLRLCCRDLRAEDLPMRNTVALLQLLDAGCLRRVDLRFNNLGLRGLSVIIPHVARFQHLASLRLHYVHGDSRQPSVDGEDNFRYFLAQMGRFTCLRELSMGSSLLSGRLDQLLSTLQSPLESLELAFCALLPEDLRFLARSPHAAHLKKLDLSGNDLSGSQLAPFQGLLQASAATLLHLELTECQLADTQLLATLPILTQCASLRYLGLYGNPLSMAGLKELLRDSVAQAELRTVVHPFPVDCYEGLPWPPPASVLLEASINEEKFARVEAELHQLLLASGRAHVLWTTDIYGRLAADYFSL [LRRC14]”: the thermal stability score by setting is: under setting [1], -0.753; (cell cycle stage: mitosis) -0.00668.
In the case of “MIEVVAELSRGPVFLAGEALECVVTVTNPLPPTATSASSEALAWASAQIHCQFHASESRVALPPPDSSQPDVQPDSQTVFLPHRGERGQCILSTPPKILFCDLRLDPGESKSYSYSEVLPIEGPPSFRGQSVKYVYKLTIGCQRVNSPITLLRVPLRVLVLTGLQDVRFPQDEAVAPSSPFLEEDEGGKKDSWLAELAGERLMAATSCRSLHLYNISDGRGKVGTFGIFKSVYRLGEDVVGTLNLGEGTVACLQFSVSLQTEERVQPEYQRRRGAGGVPSVSHVTHARHQESCLHTTRTSFSLPIPLSSTPGFCTAIVSLKWRLHFEFVTSREPGLVLLPPVEQPEPTTWTGPEQVPVDTFSWDLPIKVLPTSPTLASYAAPGPSTSTITI [RGP1]”, the thermal stability score runs as follows: under setting [1], 0.0205; (cell cycle stage: mitosis) -1.18.

The record behind these values is the supplement of paper PMC5998384.
